These are literature values, as cited in PMC2488365.

This data set addresses penton base (Human adenovirus 2) (UniProt P03276).
Chain of UniProt P03276 (P03276 whole entry): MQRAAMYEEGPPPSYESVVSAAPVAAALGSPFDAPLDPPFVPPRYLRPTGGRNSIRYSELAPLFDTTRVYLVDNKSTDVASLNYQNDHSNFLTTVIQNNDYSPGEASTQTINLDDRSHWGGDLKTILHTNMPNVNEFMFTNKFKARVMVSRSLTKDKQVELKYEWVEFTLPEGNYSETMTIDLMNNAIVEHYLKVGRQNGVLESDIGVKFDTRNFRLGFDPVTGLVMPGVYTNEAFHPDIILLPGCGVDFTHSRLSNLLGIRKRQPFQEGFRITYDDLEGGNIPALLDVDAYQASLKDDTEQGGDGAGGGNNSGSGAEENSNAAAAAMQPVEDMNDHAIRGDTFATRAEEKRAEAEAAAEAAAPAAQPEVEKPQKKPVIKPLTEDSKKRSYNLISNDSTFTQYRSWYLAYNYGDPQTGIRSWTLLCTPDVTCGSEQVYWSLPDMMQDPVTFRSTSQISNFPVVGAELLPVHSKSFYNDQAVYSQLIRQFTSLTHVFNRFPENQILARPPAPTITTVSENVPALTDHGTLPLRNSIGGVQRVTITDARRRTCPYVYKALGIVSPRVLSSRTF

By Kd is commonly meant the constant that tells how readily two partners part at equilibrium. Regarding fiber (from UniProt P03275), the Kd was 200 nM.
